# Measured values from IntAct's records for PubMed 36931259.
# B1: 14-3-3 protein sigma (Homo sapiens), P31947 (parent)
# chain: MERASLIQKAKLAEQAERYEDMAAFMKGAVEKGEELSCEERNLLSVAYKNVVGGQRAAWRVLSSIEQKSNEEGSEEKGPEVREYREKVETELQGVCDTVLGLLDSHLIKEAGDAESRVFYLKMKGDYYRYLAEVATGDDKKRIIDSARSAYQEAMDISKKEMPPTNPIRLGLALNFSVFHYEIANSPEEAISLAKTTFDEAMADLHTLSEDSYKDSTLIMQLLRDNLTLWTADNAGEEGGEAPQEPQS
# B2: 14-3-3 protein sigma (Homo sapiens), P31947 (parent)
# chain: B1 chain
# partner: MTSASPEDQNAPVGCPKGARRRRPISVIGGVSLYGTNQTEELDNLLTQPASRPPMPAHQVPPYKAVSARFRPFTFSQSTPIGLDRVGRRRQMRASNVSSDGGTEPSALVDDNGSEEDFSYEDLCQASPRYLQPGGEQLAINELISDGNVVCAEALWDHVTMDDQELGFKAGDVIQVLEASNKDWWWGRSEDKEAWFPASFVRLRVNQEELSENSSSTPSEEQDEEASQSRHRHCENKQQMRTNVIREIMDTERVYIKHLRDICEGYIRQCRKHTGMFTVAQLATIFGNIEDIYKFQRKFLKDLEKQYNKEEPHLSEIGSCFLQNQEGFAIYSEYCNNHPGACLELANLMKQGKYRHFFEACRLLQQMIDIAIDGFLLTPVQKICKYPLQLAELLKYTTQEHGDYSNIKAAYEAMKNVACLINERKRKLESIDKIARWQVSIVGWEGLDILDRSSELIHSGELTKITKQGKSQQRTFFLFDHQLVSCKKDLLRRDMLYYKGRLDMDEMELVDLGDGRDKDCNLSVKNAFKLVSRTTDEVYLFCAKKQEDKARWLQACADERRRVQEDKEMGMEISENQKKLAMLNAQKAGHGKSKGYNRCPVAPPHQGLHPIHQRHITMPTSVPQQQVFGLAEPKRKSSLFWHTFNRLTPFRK
# B3: 14-3-3 protein sigma (Homo sapiens), P31947 (parent)
# chain: B1 chain
# partner: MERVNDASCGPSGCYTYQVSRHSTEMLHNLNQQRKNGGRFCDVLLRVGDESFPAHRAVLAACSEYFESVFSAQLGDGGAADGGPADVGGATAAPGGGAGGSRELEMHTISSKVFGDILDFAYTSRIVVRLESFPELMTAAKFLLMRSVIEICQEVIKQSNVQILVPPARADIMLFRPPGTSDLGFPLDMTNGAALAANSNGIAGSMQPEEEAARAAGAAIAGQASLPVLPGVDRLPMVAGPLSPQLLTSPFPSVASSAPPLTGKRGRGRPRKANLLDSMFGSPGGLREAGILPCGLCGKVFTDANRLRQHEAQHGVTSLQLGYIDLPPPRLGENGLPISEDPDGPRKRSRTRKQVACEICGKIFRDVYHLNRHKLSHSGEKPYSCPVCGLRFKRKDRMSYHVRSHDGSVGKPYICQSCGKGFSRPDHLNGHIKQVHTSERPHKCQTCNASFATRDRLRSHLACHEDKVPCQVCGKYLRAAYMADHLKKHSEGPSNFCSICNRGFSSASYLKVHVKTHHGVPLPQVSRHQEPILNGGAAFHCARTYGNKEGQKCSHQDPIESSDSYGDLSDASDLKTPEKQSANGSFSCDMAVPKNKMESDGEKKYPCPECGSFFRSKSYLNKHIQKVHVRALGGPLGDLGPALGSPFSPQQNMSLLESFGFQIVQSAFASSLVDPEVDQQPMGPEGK
# B4: 14-3-3 protein sigma (Homo sapiens), P31947 (parent)
# chain: B1 chain
# partner: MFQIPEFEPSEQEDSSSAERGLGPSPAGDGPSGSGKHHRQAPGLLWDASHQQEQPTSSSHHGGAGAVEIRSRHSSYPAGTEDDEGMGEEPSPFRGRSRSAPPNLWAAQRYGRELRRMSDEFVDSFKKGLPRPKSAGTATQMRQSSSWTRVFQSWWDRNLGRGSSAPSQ
# B5: 14-3-3 protein sigma (Homo sapiens), P31947 (parent)
# chain: B1 chain
# partner: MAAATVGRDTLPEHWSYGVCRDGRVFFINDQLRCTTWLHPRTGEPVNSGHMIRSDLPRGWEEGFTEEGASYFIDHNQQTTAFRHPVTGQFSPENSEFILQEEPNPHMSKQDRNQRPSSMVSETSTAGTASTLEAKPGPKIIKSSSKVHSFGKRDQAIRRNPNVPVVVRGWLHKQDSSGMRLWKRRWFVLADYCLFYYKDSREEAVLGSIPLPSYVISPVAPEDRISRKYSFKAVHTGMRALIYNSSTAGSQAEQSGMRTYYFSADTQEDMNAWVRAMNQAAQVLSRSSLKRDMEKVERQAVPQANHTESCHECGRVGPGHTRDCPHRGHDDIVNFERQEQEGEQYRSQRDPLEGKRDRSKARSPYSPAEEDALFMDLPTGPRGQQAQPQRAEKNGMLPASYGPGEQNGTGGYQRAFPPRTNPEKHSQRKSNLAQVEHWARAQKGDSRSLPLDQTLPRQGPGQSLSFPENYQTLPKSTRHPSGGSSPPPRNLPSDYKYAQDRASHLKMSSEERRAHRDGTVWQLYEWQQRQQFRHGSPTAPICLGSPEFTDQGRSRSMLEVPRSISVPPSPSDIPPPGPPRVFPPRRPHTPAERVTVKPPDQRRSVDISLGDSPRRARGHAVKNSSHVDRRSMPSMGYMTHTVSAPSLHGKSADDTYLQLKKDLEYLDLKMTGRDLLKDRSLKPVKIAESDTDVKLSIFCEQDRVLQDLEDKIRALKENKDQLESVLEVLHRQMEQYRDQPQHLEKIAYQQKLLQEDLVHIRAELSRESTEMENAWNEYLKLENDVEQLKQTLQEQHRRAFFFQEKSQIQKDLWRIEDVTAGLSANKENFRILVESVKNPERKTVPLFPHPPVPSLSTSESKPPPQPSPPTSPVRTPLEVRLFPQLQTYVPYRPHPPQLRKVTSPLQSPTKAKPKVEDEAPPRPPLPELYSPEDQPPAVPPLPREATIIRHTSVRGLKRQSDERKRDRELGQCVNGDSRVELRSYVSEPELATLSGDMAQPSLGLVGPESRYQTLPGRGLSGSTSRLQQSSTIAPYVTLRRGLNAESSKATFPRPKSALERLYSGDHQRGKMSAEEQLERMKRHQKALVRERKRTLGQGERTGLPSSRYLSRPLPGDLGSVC
# B6: 14-3-3 protein sigma (Homo sapiens), P31947 (parent)
# chain: B1 chain
# partner: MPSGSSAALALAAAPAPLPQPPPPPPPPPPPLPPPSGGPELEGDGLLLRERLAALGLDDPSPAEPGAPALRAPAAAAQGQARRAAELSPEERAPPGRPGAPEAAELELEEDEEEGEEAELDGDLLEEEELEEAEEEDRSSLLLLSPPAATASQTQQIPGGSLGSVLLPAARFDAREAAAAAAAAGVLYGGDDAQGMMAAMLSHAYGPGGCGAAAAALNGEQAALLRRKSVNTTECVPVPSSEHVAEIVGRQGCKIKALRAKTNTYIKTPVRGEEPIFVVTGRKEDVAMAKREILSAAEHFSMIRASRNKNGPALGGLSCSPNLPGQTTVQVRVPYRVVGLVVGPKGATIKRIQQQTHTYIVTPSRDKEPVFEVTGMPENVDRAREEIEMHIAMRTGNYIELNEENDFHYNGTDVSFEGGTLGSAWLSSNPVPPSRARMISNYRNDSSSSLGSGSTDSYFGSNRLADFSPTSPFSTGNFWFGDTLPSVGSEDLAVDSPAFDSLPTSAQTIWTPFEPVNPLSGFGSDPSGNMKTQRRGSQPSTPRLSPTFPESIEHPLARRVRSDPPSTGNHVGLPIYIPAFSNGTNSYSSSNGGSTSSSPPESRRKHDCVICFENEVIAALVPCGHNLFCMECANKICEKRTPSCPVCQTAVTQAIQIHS
# B7: 14-3-3 protein sigma (Homo sapiens), P31947 (parent)
# chain: B1 chain
# partner: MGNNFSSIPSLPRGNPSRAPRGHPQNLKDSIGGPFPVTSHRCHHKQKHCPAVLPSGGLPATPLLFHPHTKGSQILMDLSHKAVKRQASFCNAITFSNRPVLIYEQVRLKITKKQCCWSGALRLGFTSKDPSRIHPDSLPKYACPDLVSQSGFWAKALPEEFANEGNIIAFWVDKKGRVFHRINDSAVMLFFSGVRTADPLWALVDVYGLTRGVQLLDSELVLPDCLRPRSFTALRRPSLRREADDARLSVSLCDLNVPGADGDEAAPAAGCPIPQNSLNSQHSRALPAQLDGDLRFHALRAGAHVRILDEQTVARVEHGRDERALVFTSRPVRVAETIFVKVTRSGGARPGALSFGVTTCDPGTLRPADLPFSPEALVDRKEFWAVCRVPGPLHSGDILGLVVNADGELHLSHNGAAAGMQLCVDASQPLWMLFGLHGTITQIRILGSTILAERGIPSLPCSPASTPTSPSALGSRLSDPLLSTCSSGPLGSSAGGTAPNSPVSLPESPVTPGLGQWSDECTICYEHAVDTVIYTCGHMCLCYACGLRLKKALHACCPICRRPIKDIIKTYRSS
# Variants of: B1
# Conditions: with gsk3a_human GSK3A
row,effect of a mutation on the interaction,Variant
1,decreasing interaction strength,K49D;R56D;V178D

# Variants of: B2
# Conditions: with spt13_human SPATA13, Q96N96
row,effect of a mutation on the interaction,Variant
1,decreasing interaction strength,K49E;R56E;V178D

# Variants of: B3
# Conditions: with patz1_human PATZ1, Q9HBE1
row,effect of a mutation on the interaction,Variant
1,decreasing interaction strength,K49E;R56E;V178D

# Variants of: B4
# Conditions: with bad_human BAD
row,effect of a mutation on the interaction,Variant
1,decreasing interaction strength,K49E;R56E;V178D

# Variants of: B5
# Conditions: with pkha7_human PLEKHA7, Q6IQ23
row,effect of a mutation on the interaction,Variant
1,decreasing interaction strength,K49E;R56E;V178D

# Variants of: B6
# Conditions: with mex3c_human MEX3C
row,effect of a mutation on the interaction,Variant
1,decreasing interaction strength,K49E;R56E;V178D

# Variants of: B7
# Conditions: with neul1_human NEURL1, O76050
row,effect of a mutation on the interaction,Variant
1,decreasing interaction strength,K49E;R56E;V178D
